Patent publication US20180155451A1 (published 2018)

T1: FcγRIIa R (human FcγRIIa, allotype R, Arg at position 131), extracellular domain with C-terminal His tag (human, UniProt P12318 34-217)
T1 construct: extracellular domain; expressed in FreeStyle293 cells; analyte in Biacore; also called 2aR; FcgRIIa R
T1 sequence (looked up): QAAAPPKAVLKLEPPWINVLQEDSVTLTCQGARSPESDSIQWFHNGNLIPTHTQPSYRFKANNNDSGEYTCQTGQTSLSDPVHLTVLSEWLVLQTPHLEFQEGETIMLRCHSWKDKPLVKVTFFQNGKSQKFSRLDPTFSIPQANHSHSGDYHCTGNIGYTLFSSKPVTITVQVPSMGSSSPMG

B1: GpH7-A5/GpH7-B3 variant Y296_16H/GpL16-k0 (antibody, human IgG1, kappa)
heavy 1: not shown
heavy 2: not shown
light: DIVMTQSPLSLPVTPGEPASISCQASESLVHSNRNTYLHWYLQKPGQSPQLLIYKVSNRFSGVPDRFSGSGSGTDFTLKISRVEAEDVGVYYCSQNTHVPPTFGQGTKVEIERTVAAPSVFIFPPSDEQLKSGTASVVCLLNNFYPREAKVQWKVDNALQSGNSQESVTEQDSKDSTYSLSSTLTLSKADYEKHKVYACEVTHQGLSSPVTKSFNRGEC
notes: heterodimerized antibody, mutation in one H chain only; also called He Ab
B2: GpH7-A5/GpH7-B3 variant Y296_20W/GpL16-k0 (antibody, human IgG1, kappa)
heavy 1: not shown
heavy 2: not shown
light: B1 light
notes: as for B1
B3: GpH7-A5/GpH7-B3 variant Y296_18N/GpL16-k0 (antibody, human IgG1, kappa)
heavy 1: not shown
heavy 2: not shown
light: B1 light
notes: as for B1
B4: GpH7-A5/GpH7-B3 variant T335_12R/GpL16-k0 (antibody, human IgG1, kappa)
heavy 1: not shown
heavy 2: not shown
light: B1 light
notes: as for B1
B5: GpH7-A5/GpH7-B3 variant Y296_09D/GpL16-k0 (antibody, human IgG1, kappa)
heavy 1: not shown
heavy 2: not shown
light: B1 light
notes: as for B1
B6: GpH7-A5/GpH7-B3 variant T335_19Q/GpL16-k0 (antibody, human IgG1, kappa)
heavy 1: not shown
heavy 2: not shown
light: B1 light
notes: as for B1
B7: GpH7-A5/GpH7-B3 variant T335_15Y/GpL16-k0 (antibody, human IgG1, kappa)
heavy 1: not shown
heavy 2: not shown
light: B1 light
notes: as for B1
B8: GpH7-A5/GpH7-B3 variant T335_18N/GpL16-k0 (antibody, human IgG1, kappa)
heavy 1: not shown
heavy 2: not shown
light: B1 light
notes: as for B1
B9: GpH7-A5/GpH7-B3 variant Y296_19Q/GpL16-k0 (antibody, human IgG1, kappa)
heavy 1: not shown
heavy 2: not shown
light: B1 light
notes: as for B1
B10: GpH7-A5/GpH7-B3 variant T335_13S/GpL16-k0 (antibody, human IgG1, kappa)
heavy 1: not shown
heavy 2: not shown
light: B1 light
notes: as for B1
B11: GpH7-A5/GpH7-B3 variant V266_06M/GpL16-k0 (antibody, human IgG1, kappa)
heavy 1: not shown
heavy 2: not shown
light: B1 light
notes: as for B1
B12: GpH7-A5/GpH7-B3 variant Y300_18N/GpL16-k0 (antibody, human IgG1, kappa)
heavy 1: not shown
heavy 2: not shown
light: B1 light
notes: as for B1
B13: GpH7-A5/GpH7-B3 variant Y296_06M/GpL16-k0 (antibody, human IgG1, kappa)
heavy 1: not shown
heavy 2: not shown
light: B1 light
notes: as for B1
B14: GpH7-A5/GpH7-B3 variant T335_10E/GpL16-k0 (antibody, human IgG1, kappa)
heavy 1: not shown
heavy 2: not shown
light: B1 light
notes: as for B1
B15: GpH7-A5/GpH7-B3 variant T335_16H/GpL16-k0 (antibody, human IgG1, kappa)
heavy 1: not shown
heavy 2: not shown
light: B1 light
notes: as for B1
B16: GpH7-A5/GpH7-B3 variant Y296_07I/GpL16-k0 (antibody, human IgG1, kappa)
heavy 1: not shown
heavy 2: not shown
light: B1 light
notes: as for B1
B17: GpH7-A5/GpH7-B3 variant Y296_04F/GpL16-k0 (antibody, human IgG1, kappa)
heavy 1: not shown
heavy 2: not shown
light: B1 light
notes: as for B1
B18: GpH7-A5/GpH7-B3 variant Y296_14T/GpL16-k0 (antibody, human IgG1, kappa)
heavy 1: not shown
heavy 2: not shown
light: B1 light
notes: as for B1
B19: GpH7-A5/GpH7-B3 variant T335_20W/GpL16-k0 (antibody, human IgG1, kappa)
heavy 1: not shown
heavy 2: not shown
light: B1 light
notes: as for B1
B20: GpH7-A5/GpH7-B3 variant Y296_10E/GpL16-k0 (antibody, human IgG1, kappa)
heavy 1: not shown
heavy 2: not shown
light: B1 light
notes: as for B1

target: T1, FcγRIIa R (human FcγRIIa, allotype R, …); experiment: SPR (Biacore), relative binding vs GpH7-A5/GpH7-B3/GpL16-k0
Method: Analysis of interaction between objective antibody and the FcγR was carried out using Biacore T100 (GE Healthcare). HBS-EP+ (GE Healthcare) was used as the running buffer, and the measurement temperature was set to 25° C. Chips produced by immobilizing the antigen peptide by the amine coupling method to a Series S Sencor Chip CM5 (GE Healthcare), or alternatively, chips produced by allowing preliminarily biotinylated antigen peptides to interact with and immobilize onto a Series S Sensor Chip SA (certified) (GE Healthcare) were used. Antibodies of interest were captured onto an antigen peptide-immobilized chip, and allowed to interact to each FcγR diluted with running buffer. To regenerate and repeatedly use the chip, the antibodies captured on the chip were washed off by reacting 10 mM glycine-HCl, pH 1.5.
The FcγR-binding activity of each antibody was assessed primarily using as an indicator the FcγR-binding activity and dissociation constant for FcγR.

| He/Con_2aR | Binder |
| --- | --- |
| 105 relative, control = 100 | B1 |
| 110 relative, control = 100 | B2 |
| 104 relative, control = 100 | B3 |
| 100 relative, control = 100 | B4 |
| 106 relative, control = 100 | B5 |
| 106 relative, control = 100 | B6 |
| 111 relative, control = 100 | B7 |
| 106 relative, control = 100 | B8 |
| 102 relative, control = 100 | B9 |
| 110 relative, control = 100 | B10 |
| 150 relative, control = 100 | B11 |
| 100 relative, control = 100 | B12 |
| 101 relative, control = 100 | B13 |
| 111 relative, control = 100 | B14 |
| 108 relative, control = 100 | B15 |
| 101 relative, control = 100 | B16 |
| 109 relative, control = 100 | B17 |
| 103 relative, control = 100 | B18 |
| 109 relative, control = 100 | B19 |
| 103 relative, control = 100 | B20 |
